Results taken from patent US20140087995A1 (published 2014).
Numbered stars: 1 amine (or outer) side, 2 acyl side, 3 side chain; on linkers, the order of the positions; unused ones are H or OH. Bridge positions count the residues as written; N and C are the ends. Side chains are listed from the residue outwards. Ends that are not written are not given here. * marks the point of attachment. C20 diacid = O=C(O)CCCCCCCCCCCCCCCCCCC(=O)*; γGlu = O=C(O)[C@H](CCC(=O)[*:2])N[*:1]

T1: human calcitonin receptor (human, UniProt P30988 25-474)
T1 sequence (looked up): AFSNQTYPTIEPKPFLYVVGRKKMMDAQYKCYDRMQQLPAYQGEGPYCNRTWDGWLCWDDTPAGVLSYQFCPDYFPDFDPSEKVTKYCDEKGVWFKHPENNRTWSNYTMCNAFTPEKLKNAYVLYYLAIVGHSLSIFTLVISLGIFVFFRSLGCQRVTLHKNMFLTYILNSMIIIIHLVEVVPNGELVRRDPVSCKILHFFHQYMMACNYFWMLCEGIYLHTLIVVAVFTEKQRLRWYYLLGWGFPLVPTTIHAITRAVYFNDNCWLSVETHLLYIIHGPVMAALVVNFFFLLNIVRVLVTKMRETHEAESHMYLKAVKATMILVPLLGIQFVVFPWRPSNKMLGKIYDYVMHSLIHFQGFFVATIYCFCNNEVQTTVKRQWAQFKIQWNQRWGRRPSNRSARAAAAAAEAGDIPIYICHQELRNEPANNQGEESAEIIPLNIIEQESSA


Biological target: T1, human calcitonin receptor
Assay: cell-based or functional assay

hCTR funct. EC50 [nM] | Binder
5.36 | K([γGlu-C20 diacid])CNTATCATQRLANFLRHSSPNFGAIPSSTNVGSHTY-NH2 (disulfide 2-7; N-terminus assumed; SMILES CC[C@H](C)[C@H](NC(=O)[C@H](C)NC(=O)CNC(=O)[C@H](Cc1ccccc1)NC(=O)[C@H](CC(N)=O)NC(=O)[C@@H]1CCCN1C(=O)[C@H](CO)NC(=O)[C@H](CO)NC(=O)[C@H](Cc1c[nH]cn1)NC(=O)[C@H](CCCNC(=N)N)NC(=O)[C@H](CC(C)C)NC(=O)[C@H](Cc1ccccc1)NC(=O)[C@H](CC(N)=O)NC(=O)[C@H](C)NC(=O)[C@H](CC(C)C)NC(=O)[C@H](CCCNC(=N)N)NC(=O)[C@H](CCC(N)=O)NC(=O)[C@@H](NC(=O)[C@H](C)NC(=O)[C@@H]1CSSC[C@H](NC(=O)[C@@H](N)CCCCNC(=O)CC[C@H](NC(=O)CCCCCCCCCCCCCCCCCCC(=O)O)C(=O)O)C(=O)N[C@@H](CC(N)=O)C(=O)N[C@@H]([C@@H](C)O)C(=O)N[C@@H](C)C(=O)N[C@@H]([C@@H](C)O)C(=O)N1)[C@@H](C)O)C(=O)N1CCC[C@H]1C(=O)N[C@@H](CO)C(=O)N[C@@H](CO)C(=O)N[C@H](C(=O)N[C@@H](CC(N)=O)C(=O)N[C@H](C(=O)NCC(=O)N[C@@H](CO)C(=O)N[C@@H](Cc1c[nH]cn1)C(=O)N[C@H](C(=O)N[C@@H](Cc1ccc(O)cc1)C(N)=O)[C@@H](C)O)C(C)C)[C@@H](C)O, analogue of human amylin; also called compound 60) [N^ε1-[(4S)-4-carboxy-4-(19-carboxynonadecanoylamino)butanoyl]-[Arg17,Pro21,Pro27,His35]-h-amylin]
5.22 | K([γGlu-C20 diacid])CNTATCATQRLAEFLRHSSPNFGAIPSSTNVGSRTY-NH2 (disulfide 2-7; N-terminus assumed; SMILES CC[C@H](C)[C@H](NC(=O)[C@H](C)NC(=O)CNC(=O)[C@H](Cc1ccccc1)NC(=O)[C@H](CC(N)=O)NC(=O)[C@@H]1CCCN1C(=O)[C@H](CO)NC(=O)[C@H](CO)NC(=O)[C@H](Cc1c[nH]cn1)NC(=O)[C@H](CCCNC(=N)N)NC(=O)[C@H](CC(C)C)NC(=O)[C@H](Cc1ccccc1)NC(=O)[C@H](CCC(=O)O)NC(=O)[C@H](C)NC(=O)[C@H](CC(C)C)NC(=O)[C@H](CCCNC(=N)N)NC(=O)[C@H](CCC(N)=O)NC(=O)[C@@H](NC(=O)[C@H](C)NC(=O)[C@@H]1CSSC[C@H](NC(=O)[C@@H](N)CCCCNC(=O)CC[C@H](NC(=O)CCCCCCCCCCCCCCCCCCC(=O)O)C(=O)O)C(=O)N[C@@H](CC(N)=O)C(=O)N[C@@H]([C@@H](C)O)C(=O)N[C@@H](C)C(=O)N[C@@H]([C@@H](C)O)C(=O)N1)[C@@H](C)O)C(=O)N1CCC[C@H]1C(=O)N[C@@H](CO)C(=O)N[C@@H](CO)C(=O)N[C@H](C(=O)N[C@@H](CC(N)=O)C(=O)N[C@H](C(=O)NCC(=O)N[C@@H](CO)C(=O)N[C@@H](CCCNC(=N)N)C(=O)N[C@H](C(=O)N[C@@H](Cc1ccc(O)cc1)C(N)=O)[C@@H](C)O)C(C)C)[C@@H](C)O, analogue of human amylin; also called compound 51)
5.46 | K([γGlu-C20 diacid])CNTATCATQRLANFLRHSSPNFGAIPSSTNVGSKTY-NH2 (disulfide 2-7; N-terminus assumed; SMILES CC[C@H](C)[C@H](NC(=O)[C@H](C)NC(=O)CNC(=O)[C@H](Cc1ccccc1)NC(=O)[C@H](CC(N)=O)NC(=O)[C@@H]1CCCN1C(=O)[C@H](CO)NC(=O)[C@H](CO)NC(=O)[C@H](Cc1c[nH]cn1)NC(=O)[C@H](CCCNC(=N)N)NC(=O)[C@H](CC(C)C)NC(=O)[C@H](Cc1ccccc1)NC(=O)[C@H](CC(N)=O)NC(=O)[C@H](C)NC(=O)[C@H](CC(C)C)NC(=O)[C@H](CCCNC(=N)N)NC(=O)[C@H](CCC(N)=O)NC(=O)[C@@H](NC(=O)[C@H](C)NC(=O)[C@@H]1CSSC[C@H](NC(=O)[C@@H](N)CCCCNC(=O)CC[C@H](NC(=O)CCCCCCCCCCCCCCCCCCC(=O)O)C(=O)O)C(=O)N[C@@H](CC(N)=O)C(=O)N[C@@H]([C@@H](C)O)C(=O)N[C@@H](C)C(=O)N[C@@H]([C@@H](C)O)C(=O)N1)[C@@H](C)O)C(=O)N1CCC[C@H]1C(=O)N[C@@H](CO)C(=O)N[C@@H](CO)C(=O)N[C@H](C(=O)N[C@@H](CC(N)=O)C(=O)N[C@H](C(=O)NCC(=O)N[C@@H](CO)C(=O)N[C@@H](CCCCN)C(=O)N[C@H](C(=O)N[C@@H](Cc1ccc(O)cc1)C(N)=O)[C@@H](C)O)C(C)C)[C@@H](C)O, analogue of human amylin; also called compound 35) [N^ε1-[(4S)-4-carboxy-4-(19-carboxynonadecanoylamino)butanoyl]-[Arg17,Pro21,Pro27,Lys35]-h-amylin]
0.715 | K([γGlu-C20 diacid])CNTATCATQRLAHFLRHSSPNFGAIPSSTNVGSNTY-NH2 (disulfide 2-7; N-terminus assumed; SMILES CC[C@H](C)[C@H](NC(=O)[C@H](C)NC(=O)CNC(=O)[C@H](Cc1ccccc1)NC(=O)[C@H](CC(N)=O)NC(=O)[C@@H]1CCCN1C(=O)[C@H](CO)NC(=O)[C@H](CO)NC(=O)[C@H](Cc1c[nH]cn1)NC(=O)[C@H](CCCNC(=N)N)NC(=O)[C@H](CC(C)C)NC(=O)[C@H](Cc1ccccc1)NC(=O)[C@H](Cc1c[nH]cn1)NC(=O)[C@H](C)NC(=O)[C@H](CC(C)C)NC(=O)[C@H](CCCNC(=N)N)NC(=O)[C@H](CCC(N)=O)NC(=O)[C@@H](NC(=O)[C@H](C)NC(=O)[C@@H]1CSSC[C@H](NC(=O)[C@@H](N)CCCCNC(=O)CC[C@H](NC(=O)CCCCCCCCCCCCCCCCCCC(=O)O)C(=O)O)C(=O)N[C@@H](CC(N)=O)C(=O)N[C@@H]([C@@H](C)O)C(=O)N[C@@H](C)C(=O)N[C@@H]([C@@H](C)O)C(=O)N1)[C@@H](C)O)C(=O)N1CCC[C@H]1C(=O)N[C@@H](CO)C(=O)N[C@@H](CO)C(=O)N[C@H](C(=O)N[C@@H](CC(N)=O)C(=O)N[C@H](C(=O)NCC(=O)N[C@@H](CO)C(=O)N[C@@H](CC(N)=O)C(=O)N[C@H](C(=O)N[C@@H](Cc1ccc(O)cc1)C(N)=O)[C@@H](C)O)C(C)C)[C@@H](C)O, analogue of human amylin; also called compound 70) [N^ε1-[(4S)-4-carboxy-4-(19-carboxynonadecanoylamino)butanoyl]-[His14,Arg17,Pro21,Pro27]-h-amylin]
0.539 | K([γGlu-C20 diacid])CNTATCATQRLAHFLRHSSPNFGAIPSSTPVGSNTY-NH2 (disulfide 2-7; N-terminus assumed; SMILES CC[C@H](C)[C@H](NC(=O)[C@H](C)NC(=O)CNC(=O)[C@H](Cc1ccccc1)NC(=O)[C@H](CC(N)=O)NC(=O)[C@@H]1CCCN1C(=O)[C@H](CO)NC(=O)[C@H](CO)NC(=O)[C@H](Cc1c[nH]cn1)NC(=O)[C@H](CCCNC(=N)N)NC(=O)[C@H](CC(C)C)NC(=O)[C@H](Cc1ccccc1)NC(=O)[C@H](Cc1c[nH]cn1)NC(=O)[C@H](C)NC(=O)[C@H](CC(C)C)NC(=O)[C@H](CCCNC(=N)N)NC(=O)[C@H](CCC(N)=O)NC(=O)[C@@H](NC(=O)[C@H](C)NC(=O)[C@@H]1CSSC[C@H](NC(=O)[C@@H](N)CCCCNC(=O)CC[C@H](NC(=O)CCCCCCCCCCCCCCCCCCC(=O)O)C(=O)O)C(=O)N[C@@H](CC(N)=O)C(=O)N[C@@H]([C@@H](C)O)C(=O)N[C@@H](C)C(=O)N[C@@H]([C@@H](C)O)C(=O)N1)[C@@H](C)O)C(=O)N1CCC[C@H]1C(=O)N[C@@H](CO)C(=O)N[C@@H](CO)C(=O)N[C@H](C(=O)N1CCC[C@H]1C(=O)N[C@H](C(=O)NCC(=O)N[C@@H](CO)C(=O)N[C@@H](CC(N)=O)C(=O)N[C@H](C(=O)N[C@@H](Cc1ccc(O)cc1)C(N)=O)[C@@H](C)O)C(C)C)[C@@H](C)O, analogue of human amylin; also called compound 62)
0.542 | K([γGlu-C20 diacid])CNTATCATQRLAHFLRHSSPNFGAIPSSTNVGSHTY-NH2 (disulfide 2-7; N-terminus assumed; SMILES CC[C@H](C)[C@H](NC(=O)[C@H](C)NC(=O)CNC(=O)[C@H](Cc1ccccc1)NC(=O)[C@H](CC(N)=O)NC(=O)[C@@H]1CCCN1C(=O)[C@H](CO)NC(=O)[C@H](CO)NC(=O)[C@H](Cc1c[nH]cn1)NC(=O)[C@H](CCCNC(=N)N)NC(=O)[C@H](CC(C)C)NC(=O)[C@H](Cc1ccccc1)NC(=O)[C@H](Cc1c[nH]cn1)NC(=O)[C@H](C)NC(=O)[C@H](CC(C)C)NC(=O)[C@H](CCCNC(=N)N)NC(=O)[C@H](CCC(N)=O)NC(=O)[C@@H](NC(=O)[C@H](C)NC(=O)[C@@H]1CSSC[C@H](NC(=O)[C@@H](N)CCCCNC(=O)CC[C@H](NC(=O)CCCCCCCCCCCCCCCCCCC(=O)O)C(=O)O)C(=O)N[C@@H](CC(N)=O)C(=O)N[C@@H]([C@@H](C)O)C(=O)N[C@@H](C)C(=O)N[C@@H]([C@@H](C)O)C(=O)N1)[C@@H](C)O)C(=O)N1CCC[C@H]1C(=O)N[C@@H](CO)C(=O)N[C@@H](CO)C(=O)N[C@H](C(=O)N[C@@H](CC(N)=O)C(=O)N[C@H](C(=O)NCC(=O)N[C@@H](CO)C(=O)N[C@@H](Cc1c[nH]cn1)C(=O)N[C@H](C(=O)N[C@@H](Cc1ccc(O)cc1)C(N)=O)[C@@H](C)O)C(C)C)[C@@H](C)O, analogue of human amylin; also called compound 66)
